Measurements published in paper PMC4885022, “Structural Analysis of dsRNA Binding to Anti-viral Pattern Recognition Receptors LGP2 and MDA5” (Molecular Cell, 2016).

Columns and labels:
hLGP2 = molecular target: T1, hLGP2 (Homo sapiens, UniProt Q96C10); assay: malachite green ATPase assay; assay type: biochemical; settings: dsRNA-dependent
T1 construct: gene DHX58; construct not described in main text
T1 sequence (Q96C10 1-678): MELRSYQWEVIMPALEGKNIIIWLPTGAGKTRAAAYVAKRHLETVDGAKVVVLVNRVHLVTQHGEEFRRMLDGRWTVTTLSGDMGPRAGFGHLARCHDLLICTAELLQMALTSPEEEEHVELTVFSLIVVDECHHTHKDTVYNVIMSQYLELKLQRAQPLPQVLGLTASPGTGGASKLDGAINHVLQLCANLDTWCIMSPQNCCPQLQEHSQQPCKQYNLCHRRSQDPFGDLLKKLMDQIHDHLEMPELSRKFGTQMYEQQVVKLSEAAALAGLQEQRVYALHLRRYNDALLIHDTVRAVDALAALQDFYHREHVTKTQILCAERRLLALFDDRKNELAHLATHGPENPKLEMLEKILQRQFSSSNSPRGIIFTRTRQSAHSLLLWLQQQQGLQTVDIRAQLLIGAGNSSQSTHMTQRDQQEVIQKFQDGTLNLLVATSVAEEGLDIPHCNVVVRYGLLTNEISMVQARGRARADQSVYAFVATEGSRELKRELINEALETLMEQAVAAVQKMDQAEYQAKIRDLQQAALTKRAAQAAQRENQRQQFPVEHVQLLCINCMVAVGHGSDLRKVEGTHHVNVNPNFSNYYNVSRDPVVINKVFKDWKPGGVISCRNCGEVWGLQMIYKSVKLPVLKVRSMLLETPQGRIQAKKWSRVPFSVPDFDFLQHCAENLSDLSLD

chLGP2 [1] = molecular target: T2, chLGP2 (chicken, UniProt G0YYQ5 1-674); assay: fluorescence anisotropy; affinity independent of bound nucleotide; Fluorescence anisotropy: 5'-FAM 12-mer annealed to unlabeled complement, protein titrated, ex 495 / em 515 nm, fit with Hill coefficient (n=1 for RIG-I); buffer, salt, pH and temperature not in the material; settings: protein: recombinant; tags: SUMO fusion; label: 5'-FAM on one strand; blunt
T2 sequence: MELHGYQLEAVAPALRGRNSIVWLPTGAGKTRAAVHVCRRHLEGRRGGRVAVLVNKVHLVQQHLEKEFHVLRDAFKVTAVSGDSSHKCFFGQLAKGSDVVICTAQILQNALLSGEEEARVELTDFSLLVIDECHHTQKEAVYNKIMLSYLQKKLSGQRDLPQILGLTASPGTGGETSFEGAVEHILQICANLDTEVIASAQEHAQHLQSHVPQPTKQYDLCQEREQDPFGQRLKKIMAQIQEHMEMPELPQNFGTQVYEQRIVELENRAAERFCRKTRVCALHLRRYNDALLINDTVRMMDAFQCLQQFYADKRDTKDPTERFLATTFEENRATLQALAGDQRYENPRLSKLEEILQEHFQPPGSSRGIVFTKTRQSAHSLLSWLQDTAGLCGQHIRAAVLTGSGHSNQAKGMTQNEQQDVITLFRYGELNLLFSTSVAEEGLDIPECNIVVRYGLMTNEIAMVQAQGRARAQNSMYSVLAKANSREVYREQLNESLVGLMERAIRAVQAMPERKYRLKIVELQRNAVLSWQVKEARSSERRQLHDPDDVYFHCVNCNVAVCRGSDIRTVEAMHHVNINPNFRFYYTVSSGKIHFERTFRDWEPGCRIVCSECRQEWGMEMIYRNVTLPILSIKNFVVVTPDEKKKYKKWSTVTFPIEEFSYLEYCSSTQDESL

hRIG-I = molecular target: T3, hRIG-I (human, UniProt O95786 1-925); assay: fluorescence anisotropy; ADP:AlF4; Fluorescence anisotropy: 5'-FAM 12-mer annealed to unlabeled complement, protein titrated, ex 495 / em 515 nm, fit with Hill coefficient (n=1 for RIG-I); buffer, salt, pH and temperature not in the material; settings: protein: recombinant; label: 5'-FAM on one strand; blunt
T3 sequence: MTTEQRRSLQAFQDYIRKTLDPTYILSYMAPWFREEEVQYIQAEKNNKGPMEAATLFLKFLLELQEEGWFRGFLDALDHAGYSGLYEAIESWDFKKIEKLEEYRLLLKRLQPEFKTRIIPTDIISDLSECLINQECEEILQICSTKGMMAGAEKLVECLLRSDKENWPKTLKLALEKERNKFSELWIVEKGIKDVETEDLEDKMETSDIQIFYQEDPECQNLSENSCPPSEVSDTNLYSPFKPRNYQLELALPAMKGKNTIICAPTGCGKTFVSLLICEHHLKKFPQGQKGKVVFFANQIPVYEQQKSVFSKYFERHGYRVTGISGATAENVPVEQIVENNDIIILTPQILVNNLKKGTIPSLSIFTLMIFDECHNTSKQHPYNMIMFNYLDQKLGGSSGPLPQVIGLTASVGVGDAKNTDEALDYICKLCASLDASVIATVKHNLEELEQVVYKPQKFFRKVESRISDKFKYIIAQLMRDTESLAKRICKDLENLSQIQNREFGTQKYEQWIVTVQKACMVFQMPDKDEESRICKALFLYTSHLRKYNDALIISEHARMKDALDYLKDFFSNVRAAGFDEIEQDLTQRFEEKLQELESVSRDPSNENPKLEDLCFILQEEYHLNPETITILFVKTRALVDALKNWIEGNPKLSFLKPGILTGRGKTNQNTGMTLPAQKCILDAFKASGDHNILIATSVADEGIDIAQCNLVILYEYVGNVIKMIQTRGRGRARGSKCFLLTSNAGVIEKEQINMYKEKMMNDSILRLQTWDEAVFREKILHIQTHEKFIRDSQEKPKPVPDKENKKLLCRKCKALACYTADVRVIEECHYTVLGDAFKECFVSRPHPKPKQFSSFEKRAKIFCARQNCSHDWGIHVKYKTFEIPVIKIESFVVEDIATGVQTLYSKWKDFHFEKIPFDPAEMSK

chLGP2 [2] = molecular target: T2, chLGP2; assay: fluorescence anisotropy; same affinity as 5'OH; Fluorescence anisotropy: 5'-FAM 12-mer annealed to unlabeled complement, protein titrated, ex 495 / em 515 nm, fit with Hill coefficient (n=1 for RIG-I); buffer, salt, pH and temperature not in the material; settings: protein: recombinant; tags: SUMO fusion; label: 5'-FAM on one strand; blunt
chLGP2 [3] = molecular target: T2, chLGP2; assay: crystal structure; ADP:AlF4, Mg2+; Fluorescence anisotropy: 5'-FAM 12-mer annealed to unlabeled complement, protein titrated, ex 495 / em 515 nm, fit with Hill coefficient (n=1 for RIG-I); buffer, salt, pH and temperature not in the material; settings: protein: recombinant, tags: SUMO fusion
chLGP2 [4] = molecular target: T2, chLGP2; assay: crystal structure; no nucleotide; Fluorescence anisotropy: 5'-FAM 12-mer annealed to unlabeled complement, protein titrated, ex 495 / em 515 nm, fit with Hill coefficient (n=1 for RIG-I); buffer, salt, pH and temperature not in the material; settings: protein: recombinant; tags: SUMO fusion; 2 copies of self-complementary strand
chLGP2 [5] = molecular target: T2, chLGP2; assay: fluorescence anisotropy; Fluorescence anisotropy: 5'-FAM 12-mer annealed to unlabeled complement, protein titrated, ex 495 / em 515 nm, fit with Hill coefficient (n=1 for RIG-I); buffer, salt, pH and temperature not in the material; settings: protein: recombinant; tags: SUMO fusion; label: 5'-FAM on one strand; 5' overhang
[6] = blunt, 2 copies of self-complementary strand

## Nc1ncnc2c1ncn2[C@@H]1O[C@H](COP(=O)(O)OP(=O)(O)OP(=O)(O)O)[C@@H](O)[C@H]1O [ATP]
hLGP2
  malachite green ATPase assay: both chLGP2 and hLGP2 ATPase activity is strictly dsRNA dependent

B1: 5'OH 12-mer blunt dsRNA (anisotropy) (dsRNA)
RNA 1: GGGCUCCACAUG
RNA 2: CAUGUGGAGCCC
chLGP2 [1]
  binding result: binds

B2: 5'ppp 12-mer blunt dsRNA (anisotropy) (dsRNA)
RNA 1: GGGCUCCACAUG
RNA 2: CAUGUGGAGCCC
modifications: 5' triphosphate
hRIG-I
  Kd: ~1 nM
chLGP2 [2]
  binding result: binds

B3: 5'ppp 26-mer hairpin with 3' GG overhang (structured_RNA)
RNA: GGAGCGUGCCGUACGGCACGCUCCGG
modifications: 5' triphosphate
chLGP2 [3]; hairpin, 3' overhang 2 nt (GG)
  binding result: binds

B4: 5'p 12-mer palindromic dsRNA (dsRNA)
RNA 1: GGUAGCGCUACC
RNA 2: GGUAGCGCUACC
modifications: 5' monophosphate
chLGP2 [4]
  binding result: binds

B5: 5'p 10-mer palindromic dsRNA (dsRNA)
RNA 1: GGUACGUACC
RNA 2: GGUACGUACC
modifications: 5' monophosphate
chLGP2 [3]; [6]
  binding result: binds

B6: 5' overhang dsRNA (anisotropy) (dsRNA)
RNA 1: AACCGGUCACGC
RNA 2: AAGCGUGACCGG
chLGP2 [5]
  binding signal: ~2 fold lower affinity than blunt end

B7: 5'ppp 10-mer palindromic dsRNA (dsRNA)
RNA 1: GGUACGUACC
RNA 2: GGUACGUACC
modifications: 5' triphosphate
chLGP2 [3]; [6]
  binding result: binds
